Measurements taken from PMC7617285, “Dehydrogenase versus oxidase function: the interplay between substrate binding and flavin microenvironment” (ACS catalysis, 2025).

Tested on: T1, COc1cc(CO)ccc1O
T1 construct: SUMO tag cleaved for crystals; non-covalent FAD
Assay: purified protein
Type: biochemical, Novosphingobium sp.
Conditions: molecular oxygen as acceptor, 35 °C, 50 mM Tris-HCl pH 9.0, 300 mM NaCl

Substance	Km [µM]	kcat [s⁻¹]	kcat/Km [M⁻¹ s⁻¹]
nsVAO (vanillyl-alcohol oxidase from Novosphingobium sp.) (Novosphingobium sp.)	207 ± 28	0.29 ± 0.01	1400
nsVAO (vanillyl-alcohol oxidase from Novosphingobium sp.) (Novosphingobium sp.; T181D)	203 ± 22	0.28 ± 0.01	1400
